Data reported in PMC11021448.

Columns and labels:
[1] = biological target: 6xHis-CtpA(ΔN37, S302A), purified alone (Pseudomonas aeruginosa); assay: negative staining EM; CtpA(S302A) 10 μg/ml on carbon grids prepared at room temperature, uranium formate stain, 2D classification
[2] = biological target: 6xHis-CtpA(ΔN37, ΔC6) (Pseudomonas aeruginosa); assay: SEC; separately purified CtpA (or CtpAΔC6) mixed with LbcA at molar ratios 6:1, 6:2, 6:3, 30 °C for 15 min in 20 mM Tris pH 7.5, 5 mM MgCl2, 100 mM KCl; Superdex 200 increase; peaks analysed by SDS-PAGE
[3] = biological target: 6xHis-CtpA(ΔN37, ΔC6) (Pseudomonas aeruginosa); assay: SEC; CtpA or CtpAΔC6 alone incubated at 30 °C for 15 min in 20 mM Tris pH 7.5, 5 mM MgCl2, 100 mM KCl; Superdex 200 increase
[4] = biological target: 6xHis-CtpA(ΔN37, ΔC6) (Pseudomonas aeruginosa); assay: cryo-EM 2D class averages of a cross-linked mixture; CtpAΔC6 mixed with LbcA at 6:4 molar ratio, 30 °C for 15 min in 20 mM HEPES pH 7.5, 5 mM MgCl2, 100 mM KCl, cross-linked with 1 mM BS(PEG)9 on ice overnight; 2D classification
[5] = biological target: CtpA as used in the gel filtration experiments (Pseudomonas aeruginosa); assay: SEC; separately purified CtpA (or CtpAΔC6) mixed with LbcA at molar ratios 6:1, 6:2, 6:3, 30 °C for 15 min in 20 mM Tris pH 7.5, 5 mM MgCl2, 100 mM KCl; Superdex 200 increase; peaks analysed by SDS-PAGE
[6] = biological target: CtpA as used in the gel filtration experiments (Pseudomonas aeruginosa); assay: SEC; CtpA or CtpAΔC6 alone incubated at 30 °C for 15 min in 20 mM Tris pH 7.5, 5 mM MgCl2, 100 mM KCl; Superdex 200 increase
[7] = biological target: CtpA as used in the gel filtration experiments (Pseudomonas aeruginosa); assay: as above; remark: listed apart in the source
[8] = biological target: CtpA as used in the gel filtration experiments (Pseudomonas aeruginosa); assay: not stated; CtpA alone on ice at 4 °C (Appendix Fig. S12a)
[9] = biological target: CtpA(ΔN37, S302A), co-expressed with LbcA(ΔN31), 6xHis tag removed (Pseudomonas aeruginosa); assay: cryo-EM structure; co-expressed CtpA(ΔN37, S302A)-LbcA(ΔN31) complex purified by HiTrap Ni, HiTrap Q and Superose 6 Increase (20 mM Tris pH 7.5, 5 mM MgCl2, 100 mM KCl, 1 mM DTT), 0.8 mg/ml; single particle analysis; molar ratio judged by band intensity in stained SDS-PAGE gels
[10] = biological target: 6xHis-CtpA(ΔN37, ΔC6) (Pseudomonas aeruginosa); assay: ITC; 250 μM LbcA in the syringe titrated into 9 μM CtpA hexamer (32 μM for CtpAΔC6 dimer) in the cell; 25 °C; 20 mM Tris pH 7.5, 5 mM MgCl2, 100 mM KCl; one-site fit
[11] = biological target: 6xHis-CtpA(ΔN37), wild type (Pseudomonas aeruginosa); assay: as above
[12] = biological target: 6xHis-CtpA(ΔN37, S302A), purified alone (Pseudomonas aeruginosa); assay: as above

**Q.** With “6xHis-CtpA(ΔN37, S302A), purified alone (enzyme)” as the substance, how does the stoichiometry N [1] read?
**A.** 2

**Q.** How did the stoichiometry N [2] turn out when 6xHis-CtpA(ΔN37, ΔC6) (enzyme) was run?
**A.** 2

**Q.** What about the stoichiometry N [3] of the same substance?
**A.** 2

**Q.** What about the stoichiometry N [4] of the same substance?
**A.** 2

**Q.** For “CtpA as used in the gel filtration experiments (printed only as CtpA) (enzyme)”, which stoichiometry N [5] is on record?
**A.** 6

**Q.** What about the stoichiometry N [6] of the same substance?
**A.** 2

**Q.** What about the stoichiometry N [7] of the same substance?
**A.** 6

**Q.** And the stoichiometry N [8]?
**A.** 6

**Q.** Which stoichiometry N [9] does the source give for “CtpA(ΔN37, S302A), co-expressed with LbcA(ΔN31), 6xHis tag removed (enzyme)” here?
**A.** 6

**Q.** What does the source list for “LbcA(ΔN31) with C-terminal 6xHis tag, purified alone (natural protein)”?
**A.** Kd [10]: 850 nM; Kd [11]: 920 nM; Kd [12]: 760 nM; stoichiometry N (LbcA per CtpA dimer) [12]: 1; stoichiometry N (CtpA:LbcA (molar ratio)) [5]: 2

**Q.** How did the stoichiometry N (CtpA:LbcA (molar ratio)) [9] turn out when “LbcA(ΔN31), co-expressed with CtpA(ΔN37, S302A) (natural protein)” was run?
**A.** 2
